This assay has as its target His-SUMO-tagged SH3 domain of c-Src (UniProt P12931). The assay can be described thus: pull-down; His-SUMO-c-Src-SH3 as bait on Ni2+ beads, cleaved ChoKα constructs as probes; equimolar (1:1, 25 µM); 200 mM KCl, 30 mM imidazole pH 8.5, 25 mM Tris pH 8.5, 10 mM MgCl2; three washes; SDS-PAGE, Coomassie; band intensities by ImageJ.

Experimental findings from paper PMC6864063 are described below.

Chain of Choline kinase alpha Δ49 P(61,62)A (P35790 other isoform, or with tags, fused parts or gaps mutant): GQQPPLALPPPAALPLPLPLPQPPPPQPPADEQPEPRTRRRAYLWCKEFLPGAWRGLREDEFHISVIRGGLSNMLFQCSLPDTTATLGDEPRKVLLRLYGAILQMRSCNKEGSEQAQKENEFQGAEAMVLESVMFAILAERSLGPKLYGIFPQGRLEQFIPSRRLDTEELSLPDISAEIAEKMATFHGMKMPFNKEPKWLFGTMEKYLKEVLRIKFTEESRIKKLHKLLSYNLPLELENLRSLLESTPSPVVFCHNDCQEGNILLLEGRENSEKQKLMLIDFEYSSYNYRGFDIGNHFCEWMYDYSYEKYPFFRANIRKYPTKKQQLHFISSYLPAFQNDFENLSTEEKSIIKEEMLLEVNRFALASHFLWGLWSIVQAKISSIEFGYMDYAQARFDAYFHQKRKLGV
Chain of Choline kinase alpha Δ49, wild type (P35790 50-457, stated change not applied): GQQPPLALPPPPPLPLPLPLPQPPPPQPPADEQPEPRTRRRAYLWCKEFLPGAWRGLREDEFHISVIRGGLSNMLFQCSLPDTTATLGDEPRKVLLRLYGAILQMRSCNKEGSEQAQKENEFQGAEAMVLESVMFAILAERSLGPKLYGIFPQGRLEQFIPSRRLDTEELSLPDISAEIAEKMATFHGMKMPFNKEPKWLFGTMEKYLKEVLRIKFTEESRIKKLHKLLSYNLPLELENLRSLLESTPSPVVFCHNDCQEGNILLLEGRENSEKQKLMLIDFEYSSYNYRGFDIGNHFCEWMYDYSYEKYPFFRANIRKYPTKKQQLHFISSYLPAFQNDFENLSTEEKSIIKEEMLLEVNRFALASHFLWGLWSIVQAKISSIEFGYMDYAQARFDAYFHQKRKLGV
Chain of Choline kinase alpha Δ49 P(72,73)A (P35790 other isoform, or with tags, fused parts or gaps mutant): as the sequence (P35790 50-457, stated change not applied) above, with P23A, P24A counted along it
Chain of Choline kinase alpha Δ49 P(59,60)A (P35790 other isoform, or with tags, fused parts or gaps mutant): as the sequence (P35790 50-457, stated change not applied) above, with P10A, P11A counted along it

For the substance “Choline kinase alpha Δ49 P(59,60)A (from UniProt P35790 50-457) (domain or fragment)”, the ratio of the ChoKα band intensity to the His-SUMO-cSrcSH3 band intensity came out at 0.7.
As for “Choline kinase alpha Δ49, wild type (from UniProt P35790 50-457) (domain or fragment)”, the figure is 0.69; as for “Choline kinase alpha Δ49 P(61,62)A (from UniProt P35790 50-457) (domain or fragment)”, 0.2.
As to “Choline kinase alpha Δ49 P(72,73)A (from UniProt P35790 50-457) (domain or fragment)”, the ratio of the ChoKα band intensity to the His-SUMO-cSrcSH3 band intensity is 0.88.
